Measurements: patent US20230002798A1, “PROCESS FOR THE PREPARATION OF A FERMENTABLE SUGAR COMPOSITION AND THE FERMENTATION THEREOF” (WeissBioTech GmbH, priority 2019, published 2023)

Assay type: biochemical
Conditions: pH 5
Experimental: For activity measurements, the enzyme Agl1 was incubated with 10 mM and 50 mM panose, isomaltose, isomaltotriose, maltose, maltotriose, and trehalose for 10 min at 37° C. in Britton-Robertson buffer, pH 5. The enzyme Gth was incubated with 15 mM panose, 10 and 50 mM isomaltose, and 10, 50 and 100 mM maltotriose and trehalose for 10 min at 37° C. in Britton-Robertson buffer, pH 5. The reaction was stopped with 60 μL of 1 M NaOH, followed by addition of 60 μL of 1 M HCL. The amount of produced glucose was quantified using a standardized glucose assay kit (D-Glucose HK Assay Kit, Megazyme u.c. IRE). Glucose concentration was determined as specified in the instructions. Units are defined as the amount of enzyme required to produce one μmol of glucose per minute.

B1: Agl1: oligo-1,6-glucosidase of Bifidobacterium breve UCC2003, amino acid sequence SEQ ID NO:1, expressed in Bacillus subtilis (protein)
chain: MMTTFNRAIIPDAIRTNGATPNPWWSNAVVYQIYPRSFQDTNGDGFGDLKGITSRLDYLADLGVDVLWLSPVYKSPQDDNGYDISDYQDIDPLFGTLDDMDELLAEAHKRGLKVVMDLVVNHTSDEHAWFEASKNKDDEHADWYWWRPARPGTTPGEPGSEPNQWGSYFGGSAWEYCPERGEYYLHQFSKKQPDLNWENPAVRRAVYDMMNWWLDRGIDGFRMDVITLISKRTDANGRLPGEYGSELDDLPVGEEGYSNPNPFCADGPRQDEFLKEMRREVFAGREGFLTVGEAPGITPVRNEHITNPANGELDMLFLFDHVDFDCDGVKWKPLPLDLPGFKRIMAGYQTAVENVGWASLFTGNHDQPRVVSRWGDDSSEESRVRSAKALGLMLHMHRGTPYVYQGEELGMTNAHFTSLDQYRDLESLNAYRQRVEEAKVQSPESMLAGIAARGRDNSRTPMQWDGSAYAGFTAPDAATEPWISVNPNHAEINAAGEFDDPDSVYAFYKKLIALRHNSSIVAAGEWQLIDADDAHVYAFTRTLGNERLLVVVNLSGRTVDLPRESTELIAGGVTEPDIILSTYDAPHTVVSLANRELDPWEAAAVQL
modifications: Bifidobacterium breve UCC2003; ACM89182.1 alpha-glucosidase 1
Question: For B1, which “substrate degradation (activity on trehalose)” value is on record?
Answer: The value was “breaks down trehalose”.
